Measurements published in patent publication US6509033.

Target: 'Empty' HLA-DR1 purified from insect cells expressing recombinant DR1 cDNA (human)

LPKPPKPVSKMRMATPLLMQALPM (modifications not checked) [Invariant Chain (Ii) 98-121]
Ki: 33 nM
